Consider seven molecules from patent US20090029390A1 (KOREA INSTITUTE OF SCIENCE AND TECHNOLOGY, published 2009).

Ends that are not written are not given here. * marks the point of attachment. FITC = O=C1OC2(c3ccc(O)cc3Oc3cc(O)ccc32)c2ccc(NC(=S)*)cc21; Ahx = NCCCCCC(=O)O

Test [1] concerns the target T1, GST-p300 (truncated p300, amino acids 1-221) (Homo sapiens (Human), UniProt Q09472 300-520).
T1 construct: Expressed in E. coli BL21 from pGEX-4T-1 and eluted as a GST fusion; GST was not removed; not shown: glutathione S-transferase (GST) tag encoded by the pGEX-4T-1 vector
Description: fluorescence polarization, labeled peptide titrated with GST-p300. On the technique in general: Polarisation of emitted light reports the rotation of a fluorescent probe.

For test [2], the target named is T1, GST-p300 (truncated p300, amino acids …). Description: fluorescence polarization competition against F-HIF-1α(786-826) for GST-p300.
Test [3] deals with T2, GST-CBP (truncated human CBP, amino acids 1-450) (human, UniProt Q92793 1-450).
T2 construct: Expressed in E. coli BL21 from pGEX-KG and eluted as a GST fusion; GST was not removed; not shown: glutathione S-transferase (GST) tag encoded by the pGEX-KG vector
Description: fluorescence polarization, labeled peptide titrated with GST-CBP 0-3000 nM. The procedure:
(§1) The binding affinity and features between the HIF-1α peptides and CBP or p300 proteins were analyzed by measuring the fluorescence polarization (FP) values that were changed by the formation of a protein-ligand complex through the interaction between the CBP or p300 proteins and the synthesized peptides that were manufactured by the method as described in above Example 1. The FP values were measured with a fluorescence spectrometer (Perkin-Elmer), which was set to have a slit width of 5 nm and a total integration time of 5 seconds. EBC Buffer (50 mM Tris and 120 mM NaCl; pH 8.0, 0.25% Nonidet P (NP)-40) was used for the binding reaction.
(§2) To compare interactions between the four peptides derived from different regions in HIF-1α C-TAD with CBP or p300, these fluorescein-labeled HIF-1α peptides were mixed with CBP proteins at varying concentrations from 0 to 3000 nM under the conditions of above Example 2-2, and then the FP (fluorescence polarization) values were measured (FIG. 2A).

For test [4], the target named is T2, GST-CBP (truncated human CBP, amino …). Description: fluorescence polarization, 100 nM labeled peptide titrated with GST-CBP. On the procedure:
as §1, §2

T1 sequence (Q09472 300-520): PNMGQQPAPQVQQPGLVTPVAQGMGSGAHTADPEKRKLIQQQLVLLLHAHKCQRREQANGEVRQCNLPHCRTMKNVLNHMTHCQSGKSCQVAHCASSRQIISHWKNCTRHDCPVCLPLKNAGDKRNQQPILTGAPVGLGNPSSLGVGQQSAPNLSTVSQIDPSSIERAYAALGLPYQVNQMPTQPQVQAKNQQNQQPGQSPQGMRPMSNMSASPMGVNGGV
T2 sequence (Q92793 1-450): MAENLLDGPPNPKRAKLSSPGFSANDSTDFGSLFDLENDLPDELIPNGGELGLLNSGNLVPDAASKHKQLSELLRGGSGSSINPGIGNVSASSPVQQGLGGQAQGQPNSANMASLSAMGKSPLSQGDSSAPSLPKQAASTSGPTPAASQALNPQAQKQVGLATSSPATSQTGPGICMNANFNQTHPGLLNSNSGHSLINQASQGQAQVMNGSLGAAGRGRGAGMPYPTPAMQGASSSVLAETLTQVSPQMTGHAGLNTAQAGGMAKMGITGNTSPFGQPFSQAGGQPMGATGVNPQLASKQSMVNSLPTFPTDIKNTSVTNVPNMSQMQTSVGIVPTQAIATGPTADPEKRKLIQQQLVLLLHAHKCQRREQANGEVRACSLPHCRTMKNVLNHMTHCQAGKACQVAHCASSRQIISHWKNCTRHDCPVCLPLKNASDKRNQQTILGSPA

B1: F-HIF-1α (786-826)[C800A] (peptide)
peptide: {FITC-Ahx}-SMDESGLPQLTSYDAEVNAPIQGSRNLLQGEELLRALDQVN
notes: Position 800 counts on full-length HIF-1α
Consider B1, for which the binding result in test [1] was “binds”.

B2: T796D HIF-1α (786-826) peptide (peptide)
peptide: SMDESGLPQLDSYDCEVNAPIQGSRNLLQGEELLRALDQVN
notes: Unlabeled recombinant peptide with GST removed by thrombin; Position counts on full-length HIF-1α; also called T796D mutant peptide
Regarding B2, the binding result in test [2] is on record as “binds”.

B3: N803A HIF-1α (786-826) peptide (peptide)
peptide: SMDESGLPQLTSYDCEVAAPIQGSRNLLQGEELLRALDQVN
notes: Unlabeled recombinant peptide with GST removed by thrombin; Position counts on full-length HIF-1α; also called N803A mutant peptide
As to B3, the binding result in test [2] is “binds”.

B4: F-HIF-1α (786-826, SEQ ID NO: 4) (peptide)
peptide: {FITC-Ahx}-SMDESGLPQLTSYDCEVNAPIQGSRNLLQGEELLRALDQVN
notes: Synthetic fluorescein-labeled peptide; also called untreated peptide
The term Kd denotes a measure of binding affinity in units of concentration. A high value points to a looser complex. On to B4, for which the results for the Kd in test [1] and in test [3] were 180 nM and 175 nM, respectively.
On to {FITC-Ahx}-DESGLPQLTSYDCEVNAPIQGSRNLLQGEELLRAL (Synthetic fluorescein-labeled peptide) [F-HIF-1α (788-822, SEQ ID NO: 6)], for which the binding result in test [1] and in test [3] was “binds” throughout.

B5: F-HIF-1α (776-826, SEQ ID NO: 3) (peptide)
peptide: {FITC-Ahx}-SDLACRLLGQSMDESGLPQLTSYDCEVNAPIQGSRNLLQGEELLRALDQVN
modifications: cysteine pairing not given here
notes: Synthetic fluorescein-labeled peptide from the C-TAD of human HIF-1α
B5: the Kd in test [1] stood at 157 nM; in test [3], 196 nM.
Consider {FITC-Ahx}-SDLACRLLGQSMDESGLPQLTSYDCEVNAPIQGSRNLLQ (cysteine pairing not given here, Synthetic fluorescein-labeled peptide) [F-HIF-1α (776-814, SEQ ID NO: 5)], for which the values for the binding result in test [1] and in test [4] were “no binding” and “no binding (tested: 3000 nM)”, respectively.
